The values below come from patent publication US6084068, “Elongin A and C functional domains” (Oklahoma Medical Research Foundation, dated 2000).

The experiment has as its target T1, Elongin BC complex (wild type rat Elongin B and C) (rat, UniProt P62870).
T1 chain 1: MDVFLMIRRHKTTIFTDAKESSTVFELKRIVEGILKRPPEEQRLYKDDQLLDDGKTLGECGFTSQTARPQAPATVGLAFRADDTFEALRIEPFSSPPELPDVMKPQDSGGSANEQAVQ
T1 chain 2: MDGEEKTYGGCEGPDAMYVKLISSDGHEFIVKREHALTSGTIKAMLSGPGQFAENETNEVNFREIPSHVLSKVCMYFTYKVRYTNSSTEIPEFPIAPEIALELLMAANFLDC
Description: refolded with wild type Elongin B and C; TSK SP-NPR HPLC, SDS-PAGE, silver staining.

B1: Elongin A mutant composed of residues 500 to 700 (other)
chain: LELISSFQPKRKAFSSPQEEEEAGFTGRRMNSKMQVYSGSKCAYLPKMMTLHQQCIRVLKNNIDSIFEVGGVPYSVLEPVLERCTPDQLYRIEECNHVLIEETDQLWKVHCHRDFKEERPEEYESWREMYLRLQDAREQRLRLLTNNIRSAHANKPKGRQAKMAFVNSVAKPPRDVRRRQEKFGTGGAAVPEKVRIKPAPY
For B1, the binding result is “binds”.

B2: Elongin A mutant composed of residues 500 to 730 (other)
chain: LELISSFQPKRKAFSSPQEEEEAGFTGRRMNSKMQVYSGSKCAYLPKMMTLHQQCIRVLKNNIDSIFEVGGVPYSVLEPVLERCTPDQLYRIEECNHVLIEETDQLWKVHCHRDFKEERPEEYESWREMYLRLQDAREQRLRLLTNNIRSAHANKPKGRQAKMAFVNSVAKPPRDVRRRQEKFGTGGAAVPEKVRIKPAPYTTGSSHVPASNSSSSFHSSPEELAYEGPST
Take B2: the binding result is reported as “binds”.

B3: Elongin A internal deletion mutant Δ545-548 (other)
chain: MAAESALQVVEKLQARLAANPDPKKLLKYLKKLSVLPITVDILVETGVGKTVNSFRKHEQVGNFARDLVAQWKKLVPVERNNEAEDQDFEKSNSRKRPRDVPQQEEEAEGNYQESWQASGSQPYSPEHRQKKHRKLPELERPHKVAHGHERRDERKRCHKVSPPYSSDPESSDYGHVQSPPPSSPHQMYTDLSRSPEMDQEPIVSHPKPGKVHSNTFQDRLGVSHLGEHQGKGAVSQNKPHKSSHKEKRPVDARGDEKSSVMGREKSHKASSKEESRRLLSEDSAKEKLPSSVVKKEKDREGNSLKKKLSPALDVASDNHFKKPKHKDSEKIKSDKNKQSVDSVDSGRGTGDPLPRAKDKVPNNLKAQEGKVRTNSDRKSPGSLPKVEEMDMDDEFEQPTMSFESYLSYDQPRKKKKKVVKTSGTALGEKGLKKKDSKSTSKNLNSAQKLPKANENKSDKLQPAGAEPTRPRKVPTDVLPALPDIPLPAIQTNYRPLPSLELISSFQPKRKAFSSPQEEEEAGFTGRRMNSKMQVYSGSKCAYLTLHQQCIRVLKNNIDSIFEVGGVPYSVLEPVLERCTPDQLYRIEECNHVLIEETDQLWKVHCHRDFKEERPEEYESWREMYLRLQDAREQRLRLLTNNIRSAHANKPKGRQAKMAFVNSVAKPPRDVRRRQEKFGTGGAAVPEKVRIKPAPYTTGSSHVPASNSSSSFHSSPEELAYEGPSTSSAHLAPVASSSVSYDPRKPAVKKIAPMMAKTIKAFKNRFSRR
On to B3, for which the binding result is reported as “binds”.

B4: Elongin A internal deletion mutant Δ691-730 (other)
chain: MAAESALQVVEKLQARLAANPDPKKLLKYLKKLSVLPITVDILVETGVGKTVNSFRKHEQVGNFARDLVAQWKKLVPVERNNEAEDQDFEKSNSRKRPRDVPQQEEEAEGNYQESWQASGSQPYSPEHRQKKHRKLPELERPHKVAHGHERRDERKRCHKVSPPYSSDPESSDYGHVQSPPPSSPHQMYTDLSRSPEMDQEPIVSHPKPGKVHSNTFQDRLGVSHLGEHQGKGAVSQNKPHKSSHKEKRPVDARGDEKSSVMGREKSHKASSKEESRRLLSEDSAKEKLPSSVVKKEKDREGNSLKKKLSPALDVASDNHFKKPKHKDSEKIKSDKNKQSVDSVDSGRGTGDPLPRAKDKVPNNLKAQEGKVRTNSDRKSPGSLPKVEEMDMDDEFEQPTMSFESYLSYDQPRKKKKKVVKTSGTALGEKGLKKKDSKSTSKNLNSAQKLPKANENKSDKLQPAGAEPTRPRKVPTDVLPALPDIPLPAIQTNYRPLPSLELISSFQPKRKAFSSPQEEEEAGFTGRRMNSKMQVYSGSKCAYLPKMMTLHQQCIRVLKNNIDSIFEVGGVPYSVLEPVLERCTPDQLYRIEECNHVLIEETDQLWKVHCHRDFKEERPEEYESWREMYLRLQDAREQRLRLLTNNIRSAHANKPKGRQAKMAFVNSVAKPPRDVRRRQEKFGTGGAAVPSSAHLAPVASSSVSYDPRKPAVKKIAPMMAKTIKAFKNRFSRR
Take B4: the binding result is “binds”.
